According to patent US20250026846A1 (JCR PHARMACEUTICALS, published 2025):

T1: recombinant monkey TfR (r monkey TfR: Sino Biological Inc.), crab-eating monkey TfR extracellular region with … (crab-eating monkey (Macaca fascicularis))
T1 construct: Bought from Sino Biological; also called r monkey TfR-ECD (Histag); not shown: histidine tag at the N-terminus
T1 chain: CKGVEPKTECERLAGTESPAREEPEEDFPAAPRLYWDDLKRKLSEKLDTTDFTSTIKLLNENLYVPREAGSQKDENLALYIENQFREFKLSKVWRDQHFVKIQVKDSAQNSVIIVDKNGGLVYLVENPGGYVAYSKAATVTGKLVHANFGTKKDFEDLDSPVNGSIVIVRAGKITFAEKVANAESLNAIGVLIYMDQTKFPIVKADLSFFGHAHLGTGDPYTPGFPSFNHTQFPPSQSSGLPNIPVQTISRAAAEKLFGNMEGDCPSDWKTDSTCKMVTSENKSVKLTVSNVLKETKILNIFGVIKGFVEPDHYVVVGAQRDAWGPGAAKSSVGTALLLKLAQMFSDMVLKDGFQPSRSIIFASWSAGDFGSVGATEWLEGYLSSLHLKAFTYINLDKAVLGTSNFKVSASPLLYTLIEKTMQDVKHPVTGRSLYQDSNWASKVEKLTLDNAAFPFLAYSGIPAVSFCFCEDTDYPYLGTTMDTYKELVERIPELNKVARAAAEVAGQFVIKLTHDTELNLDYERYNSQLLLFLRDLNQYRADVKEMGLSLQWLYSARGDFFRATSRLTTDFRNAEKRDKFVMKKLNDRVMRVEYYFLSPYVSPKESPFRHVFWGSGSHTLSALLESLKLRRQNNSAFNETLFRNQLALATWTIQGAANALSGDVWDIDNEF

B1: Fab GS3-GBA (other)
light: DIVMTQTPLSLSVTPGQPASISCRSSQSLVHSNGNTYLHWYLQKPGQSPQLLIYKVSNRFSGVPDRFSGSGSGTDFTLKISRVEAEDVGVYYCSQSTHVPWTFGQGTKVEIKRTVAAPSVFIFPPSDEQLKSGTASVVCLLNNFYPREAKVQWKVDNALQSGNSQESVTEQDSKDSTYSLSSTLTLSKADYEKHKVYACEVTHQGLSSPVTKSFNRGEC
heavy: EVQLVQSGAEVKKPGESLKISCKGSGYSFMNYWLGWVRQMPGKGLEWMGDIYPGGDYPTYSEKFKVQVTISADKSISTAYLQLSSLKASDTAMYYCARSGNYDEVAYWGQGTLVTVSSASTKGPSVFPLAPSSKSTSGGTAALGCLVKDYFPEPVTVSWNSGALTSGVHTFPAVLQSSGLYSLSSVVTVPSSSLGTQTYICNVNHKPSNTKVDKKVEPKSCDKTHTGGGGSGGGGSGGGGSARPCIPKSFGYSSVVCVCNATYCDSFDPPTFPALGTFSRYESTRSGRRMELSMGPIQANHTGTGLLLTLQPEQKFQKVKGFGGAMTDAAALNILALSPPAQNLLLKSYFSEEGIGYNIIRVPMASCDFSIRTYTYADTPDDFQLHNFSLPEEDTKLKIPLIHRALQLAQRPVSLLASPWTSPTWLKTNGAVNGKGSLKGQPGDIYHQTWARYFVKFLDAYAEHKLQFWAVTAENEPSAGLLSGYPFQCLGFTPEHQRDFIARDLGPTLANSTHHNVRLLMLDDQRLLLPHWAKVVLTDPEAAKYVHGIAVHWYLDFLAPAKATLGETHRLFPNTMLFASEACVGSKFWEQSVRLGSWDRGMQYSHSIITNLLYHVVGWTDWNLALNPEGGPNWVRNFVDSPIIVDITKDTFYKQPMFYHLGHFSKFIPEGSQRVGLVASQKNDLDAVALMHPDGSAVVVVLNRSSKDVPLTIKDPAVGFLETISPGYSIHTYLWRRQ
notes: also called Fab HC-GS3-GBA
B2: Fab GS3-GALC (other)
light: B1 light
heavy: EVQLVQSGAEVKKPGESLKISCKGSGYSFMNYWLGWVRQMPGKGLEWMGDIYPGGDYPTYSEKFKVQVTISADKSISTAYLQLSSLKASDTAMYYCARSGNYDEVAYWGQGTLVTVSSASTKGPSVFPLAPSSKSTSGGTAALGCLVKDYFPEPVTVSWNSGALTSGVHTFPAVLQSSGLYSLSSVVTVPSSSLGTQTYICNVNHKPSNTKVDKKVEPKSCDKTHTGGGGSGGGGSGGGGSYVLDDSDGLGREFDGIGAVSGGGATSRLLVNYPEPYRSQILDYLFKPNFGASLHILKVEIGGDGQTTDGTEPSHMHYALDENYFRGYEWWLMKEAKKRNPNITLIGLPWSFPGWLGKGFDWPYVNLQLTAYYVVTWIVGAKRYHDLDIDYIGIWNERSYNANYIKILRKMLNYQGLQRVKIIASDNLWESISASMLLDAELFKVVDVIGAHYPGTHSAKDAKLTGKKLWSSEDFSTLNSDMGAGCWGRILNQNYINGYMTSTIAWNLVASYYEQLPYGRCGLMTAQEPWSGHYVVESPVWVSAHTTQFTQPGWYYLKTVGHLEKGGSYVALTDGLGNLTIIIETMSHKHSKCIRPFLPYFNVSQQFATFVLKGSFSEIPELQVWYTKLGKTSERFLFKQLDSLWLLDSDGSFTLSLHEDELFTLTTLTTGRKGSYPLPPKSQPFPSTYKDDFNVDYPFFSEAPNFADQTGVFEYFTNIEDPGEHHFTLRQVLNQRPITWAADASNTISIIGDYNWTNLTIKCDVYIETPDTGGVFIAGRVNKGGILIRSARGIFFWIFANGSYRVTGDLAGWIIYALGRVEVTAKKWYTLTLTIKGHFTSGMLNDKSLWTDIPVNFPKNGWAAIGTHSFEFAQFDNFLVEATR
notes: also called Fab HC-GS3-GALC
B3: Fab GS3-GUSB (other)
light: B1 light
heavy: EVQLVQSGAEVKKPGESLKISCKGSGYSFMNYWLGWVRQMPGKGLEWMGDIYPGGDYPTYSEKFKVQVTISADKSISTAYLQLSSLKASDTAMYYCARSGNYDEVAYWGQGTLVTVSSASTKGPSVFPLAPSSKSTSGGTAALGCLVKDYFPEPVTVSWNSGALTSGVHTFPAVLQSSGLYSLSSVVTVPSSSLGTQTYICNVNHKPSNTKVDKKVEPKSCDKTHTGGGGSGGGGSGGGGSLQGGMLYPQESPSRECKELDGLWSFRADFSDNRRRGFEEQWYRRPLWESGPTVDMPVPSSFNDISQDWRLRHFVGWVWYEREVILPERWTQDLRTRVVLRIGSAHSYAIVWVNGVDTLEHEGGYLPFEADISNLVQVGPLPSRLRITIAINNTLTPTTLPPGTIQYLTDTSKYPKGYFVQNTYFDFFNYAGLQRSVLLYTTPTTYIDDITVTTSVEQDSGLVNYQISVKGSNLFKLEVRLLDAENKVVANGTGTQGQLKVPGVSLWWPYLMHERPAYLYSLEVQLTAQTSLGPVSDFYTLPVGIRTVAVTKSQFLINGKPFYFHGVNKHEDADIRGKGFDWPLLVKDFNLLRWLGANAFRTSHYPYAEEVMQMCDRYGIVVIDECPGVGLALPQFFNNVSLHHHMQVMEEVVRRDKNHPAVVMWSVANEPASHLESAGYYLKMVIAHTKSLDPSRPVTFVSNSNYAADKGAPYVDVICLNSYYSWYHDYGHLELIQLQLATQFENWYKKYQKPIIQSEYGAETIAGFHQDPPLMFTEEYQKSLLEQYHLGLDQKRRKYVVGELIWNFADFMTEQSPTRVLGNKKGIFTRQRQPKSAAFLLRERYWKIANETRYPHSVAKSQCLENSLFT
notes: also called Fab HC-GS3-GUSB
B4: Fab GS3-AC (other)
light: B1 light
heavy: EVQLVQSGAEVKKPGESLKISCKGSGYSFMNYWLGWVRQMPGKGLEWMGDIYPGGDYPTYSEKFKVQVTISADKSISTAYLQLSSLKASDTAMYYCARSGNYDEVAYWGQGTLVTVSSASTKGPSVFPLAPSSKSTSGGTAALGCLVKDYFPEPVTVSWNSGALTSGVHTFPAVLQSSGLYSLSSVVTVPSSSLGTQTYICNVNHKPSNTKVDKKVEPKSCDKTHTGGGGSGGGGSGGGGSQHAPPWTEDCRKSTYPPSGPTYRGAVPWYTINLDLPPYKRWHELMLDKAPVLKVIVNSLKNMINTFVPSGKIMQVVDEKLPGLLGNFPGPFEEEMKGIAAVTDIPLGEIISFNIFYELFTICTSIVAEDKKGHLIHGRNMDFGVFLGWNINNDTWVITEQLKPLTVNLDFQRNNKTVFKASSFAGYVGMLTGFKPGLFSLTLNERFSINGGYLGILEWILGKKDVMWIGFLTRTVLENSTSYEEAKNLLTKTKILAPAYFILGGNQSGEGCVITRDRKESLDVYELDAKQGRWYVVQTNYDRWKHPFFLDDRRTPAKMCLNRTSQENISFETMYDVLSTKPVLNKLTVYTTLIDVTKGQFETYLRDCPDPCIGW
notes: also called Fab HC-GS3-AC
B5: Fab GS3-NAGLU (other)
light: B1 light
heavy: EVQLVQSGAEVKKPGESLKISCKGSGYSFMNYWLGWVRQMPGKGLEWMGDIYPGGDYPTYSEKFKVQVTISADKSISTAYLQLSSLKASDTAMYYCARSGNYDEVAYWGQGTLVTVSSASTKGPSVFPLAPSSKSTSGGTAALGCLVKDYFPEPVTVSWNSGALTSGVHTFPAVLQSSGLYSLSSVVTVPSSSLGTQTYICNVNHKPSNTKVDKKVEPKSCDKTHTGGGGSGGGGSGGGGSDEAREAAAVRALVARLLGPGPAADFSVSVERALAAKPGLDTYSLGGGGAARVRVRGSTGVAAAAGLHRYLRDFCGCHVAWSGSQLRLPRPLPAVPGELTEATPNRYRYYQNVCTQSYSFVWWDWARWEREIDWMALNGINLALAWSGQEAIWQRVYLALGLTQAEINEFFTGPAFLAWGRMGNLHTWDGPLPPSWHIKQLYLQHRVLDQMRSFGMTPVLPAFAGHVPEAVTRVFPQVNVTKMGSWGHFNCSYSCSFLLAPEDPIFPIIGSLFLRELIKEFGTDHIYGADTFNEMQPPSSEPSYLAAATTAVYEAMTAVDTEAVWLLQGWLFQHQPQFWGPAQIRAVLGAVPRGRLLVLDLFAESQPVYTRTASFQGQPFIWCMLHNFGGNHGLFGALEAVNGGPEAARLFPNSTMVGTGMAPEGISQNEVVYSLMAELGWRKDPVPDLAAWVTSFAARRYGVSHPDAGAAWRLLLRSVYNCSGEACRGHNRSPLVRRPSLQMNTSIWYNRSDVFEAWRLLLTSAPSLATSPAFRYDLLDLTRQAVQELVSLYYEEARSAYLSKELASLLRAGGVLAYELLPALDEVLASDSRFLLGSWLEQARAAAVSEAEADFYEQNSRYQLTLWGPEGNILDYANKQLAGLVANYYTPRWRLFLEALVDSVAQGIPFQQHQFDKNVFQLEQAFVLSKQRYPSQPRGDTVDLAKKIFLKYYPRWVAGSW
notes: also called Fab HC-GS3-NAGLU

Biological target: T2, recombinant human TfR (r human TfR: Sino Biological Inc.), hTfR extracellular region with a histidine tag at … (human, UniProt P02786 89-760)
T2 construct: Bought from Sino Biological; also called r human TfR-ECD (Histag); recombinant hTfR; not shown: histidine tag at the N-terminus
Experiment: BLI (Octet RED96), His-tagged TfR ECD on Ni-NTA sensor

Kd	koff	kon	Binder
< 0.001 nM	< 1e-07 s⁻¹	623000 M⁻¹ s⁻¹	B1
< 0.001 nM	< 1e-07 s⁻¹	224000 M⁻¹ s⁻¹	B2
< 0.001 nM	< 1e-07 s⁻¹	449000 M⁻¹ s⁻¹	B3
0.209 nM	0.000105 s⁻¹	501000 M⁻¹ s⁻¹	B4
< 0.001 nM	< 1e-07 s⁻¹	291000 M⁻¹ s⁻¹	B5

Biological target: T1, recombinant monkey TfR (r monkey TfR: …)
Experiment: as above

kon	Kd	koff	Binder
299000 M⁻¹ s⁻¹	–	–	B1
111000 M⁻¹ s⁻¹	1.4 nM	0.000154 s⁻¹	B2
250000 M⁻¹ s⁻¹	< 0.001 nM	< 1e-07 s⁻¹	B3
277000 M⁻¹ s⁻¹	~11.8 nM	~0.00327 s⁻¹	B4
154000 M⁻¹ s⁻¹	2.62 nM	0.000402 s⁻¹	B5
